{"source": "the supplement of paper PMC10567573", "parents": {"B1": {"name": "SLC22A15 (parent)", "chain": "IAQYALLGYFIRSWRTLAILVNLQ"}}}
{"variants_of": "B1", "test": "protein stability index of a GFP-peptide fusion (GPS, HEK-293T) (PSI 1-6); higher = more stable", "settings": "c terminus: a fixed tail appended"}
{"variant": "L7Q", "protein stability index": 2.52}
{"variant": "L7S", "protein stability index": 3.26}
{"variant": "L7W", "protein stability index": 2.78}
{"variant": "L7Y", "protein stability index": 2.5}
{"variant": "G8C", "protein stability index": 2.42}
{"variant": "G8E", "protein stability index": 1.83}
{"variant": "G8F", "protein stability index": 2.71}
{"variant": "G8H", "protein stability index": 2.21}
{"variant": "G8I", "protein stability index": 3.12}
{"variant": "G8K", "protein stability index": 1.71}
{"variant": "G8L", "protein stability index": 1.88}
{"variant": "G8M", "protein stability index": 3.1}
{"variant": "G8N", "protein stability index": 1.67}
{"variant": "G8P", "protein stability index": 1.82}
{"variant": "G8Q", "protein stability index": 3.07}
{"variant": "G8S", "protein stability index": 3.52}
{"variant": "G8V", "protein stability index": 2.97}
{"variant": "G8Y", "protein stability index": 1.76}
{"variant": "Y9A", "protein stability index": 1.47}
{"variant": "Y9C", "protein stability index": 2.75}
{"variant": "Y9D", "protein stability index": 2.57}
{"variant": "Y9E", "protein stability index": 2.03}
{"variant": "Y9G", "protein stability index": 3.34}
{"variant": "Y9I", "protein stability index": 2.71}
{"variant": "Y9K", "protein stability index": 1.29}
{"variant": "Y9N", "protein stability index": 2.22}
{"variant": "Y9Q", "protein stability index": 4.48}
{"variant": "Y9W", "protein stability index": 2.92}
{"variant": "F10A", "protein stability index": 3.58}
{"variant": "F10C", "protein stability index": 2.86}
{"variant": "F10E", "protein stability index": 4.46}
{"variant": "F10G", "protein stability index": 1.67}
{"variant": "F10H", "protein stability index": 3.27}
{"variant": "F10I", "protein stability index": 4.57}
{"variant": "F10K", "protein stability index": 2.44}
{"variant": "F10L", "protein stability index": 3.4}
{"variant": "F10P", "protein stability index": 2.24}
{"variant": "F10Q", "protein stability index": 3.4}
{"variant": "F10T", "protein stability index": 4.13}
{"variant": "F10V", "protein stability index": 3.1}
{"variant": "I11A", "protein stability index": 2.96}
{"variant": "I11C", "protein stability index": 2.6}
{"variant": "I11D", "protein stability index": 3.1}
{"variant": "I11E", "protein stability index": 1.63}
{"variant": "I11F", "protein stability index": 3.45}
{"variant": "I11H", "protein stability index": 2.63}
{"variant": "I11K", "protein stability index": 3.38}
{"variant": "I11L", "protein stability index": 2.34}
{"variant": "I11M", "protein stability index": 2.89}
{"variant": "I11N", "protein stability index": 2.32}
{"variant": "I11P", "protein stability index": 2.1}
{"variant": "I11Q", "protein stability index": 2.14}
{"variant": "I11R", "protein stability index": 2.37}
{"variant": "I11S", "protein stability index": 2.68}
{"variant": "I11T", "protein stability index": 3.02}
{"variant": "I11V", "protein stability index": 2.88}
{"variant": "I11Y", "protein stability index": 2.72}
{"variant": "R12C", "protein stability index": 2.67}
{"variant": "R12D", "protein stability index": 1.86}
{"variant": "R12E", "protein stability index": 3.81}
{"variant": "R12F", "protein stability index": 3.61}
{"variant": "R12G", "protein stability index": 2.97}
{"variant": "R12H", "protein stability index": 2.5}
{"variant": "R12I", "protein stability index": 3.48}
{"variant": "R12K", "protein stability index": 2.95}
{"variant": "R12L", "protein stability index": 2.94}
{"variant": "R12M", "protein stability index": 2.98}
{"variant": "R12N", "protein stability index": 2.27}
{"variant": "R12P", "protein stability index": 2.67}
{"variant": "R12Q", "protein stability index": 1.93}
{"variant": "R12S", "protein stability index": 3.61}
{"variant": "R12T", "protein stability index": 1.97}
{"variant": "R12V", "protein stability index": 2.34}
{"variant": "R12W", "protein stability index": 2.88}
{"variant": "R12Y", "protein stability index": 3.46}
{"variant": "S13A", "protein stability index": 2.29}
{"variant": "S13C", "protein stability index": 3.26}
{"variant": "S13D", "protein stability index": 3.34}
{"variant": "S13F", "protein stability index": 2.29}
{"variant": "S13G", "protein stability index": 2.4}
{"variant": "S13H", "protein stability index": 3.68}
{"variant": "S13I", "protein stability index": 3.82}
{"variant": "S13K", "protein stability index": 1.4}
{"variant": "S13L", "protein stability index": 4.37}
{"variant": "S13M", "protein stability index": 3.12}
{"variant": "S13N", "protein stability index": 2.56}
{"variant": "S13P", "protein stability index": 2}
{"variant": "S13Q", "protein stability index": 2.61}
{"variant": "S13R", "protein stability index": 3.53}
{"variant": "S13T", "protein stability index": 3.14}
{"variant": "S13V", "protein stability index": 2.11}
{"variant": "S13W", "protein stability index": 2.3}
{"variant": "S13Y", "protein stability index": 2.3}
{"variant": "W14C", "protein stability index": 4}
{"variant": "W14D", "protein stability index": 2.61}
{"variant": "W14E", "protein stability index": 1.91}
{"variant": "W14F", "protein stability index": 2.86}
{"variant": "W14G", "protein stability index": 3.14}
{"variant": "W14H", "protein stability index": 4.19}
{"variant": "W14I", "protein stability index": 3.04}
{"variant": "W14K", "protein stability index": 1.79}
{"variant": "W14L", "protein stability index": 3.89}
{"variant": "W14M", "protein stability index": 2.62}
{"variant": "W14N", "protein stability index": 3.47}
{"variant": "W14P", "protein stability index": 3.8}
{"variant": "W14Q", "protein stability index": 3.34}
{"variant": "W14R", "protein stability index": 2.52}
{"variant": "W14T", "protein stability index": 2.6}
{"variant": "W14V", "protein stability index": 2.46}
{"variant": "W14Y", "protein stability index": 3.53}
{"variant": "R15A", "protein stability index": 2.1}
{"variant": "R15C", "protein stability index": 2.86}
{"variant": "R15D", "protein stability index": 4.08}
{"variant": "R15E", "protein stability index": 1.81}
{"variant": "R15F", "protein stability index": 3.18}
{"variant": "R15G", "protein stability index": 4.28}
{"variant": "R15H", "protein stability index": 2.65}
{"variant": "R15I", "protein stability index": 3.23}
{"variant": "R15K", "protein stability index": 3.15}
{"variant": "R15L", "protein stability index": 2.95}
{"variant": "R15M", "protein stability index": 2.18}
{"variant": "R15N", "protein stability index": 3.78}
{"variant": "R15Q", "protein stability index": 2.52}
{"variant": "R15S", "protein stability index": 2}
{"variant": "R15T", "protein stability index": 4.03}
{"variant": "R15V", "protein stability index": 2.88}
{"variant": "R15W", "protein stability index": 3.4}
{"variant": "R15Y", "protein stability index": 2.65}
{"variant": "T16A", "protein stability index": 3.28}
{"variant": "T16C", "protein stability index": 4.17}
{"variant": "T16D", "protein stability index": 1.58}
{"variant": "T16E", "protein stability index": 2.07}
{"variant": "T16G", "protein stability index": 2.8}
{"variant": "T16H", "protein stability index": 3.46}
{"variant": "T16I", "protein stability index": 4.01}
{"variant": "T16K", "protein stability index": 1.98}
{"variant": "T16L", "protein stability index": 2.43}
{"variant": "T16M", "protein stability index": 3.23}
{"variant": "T16N", "protein stability index": 2.63}
{"variant": "T16P", "protein stability index": 5.02}
{"variant": "T16Q", "protein stability index": 3.17}
{"variant": "T16R", "protein stability index": 3.13}
{"variant": "T16S", "protein stability index": 3.05}
{"variant": "T16V", "protein stability index": 3.34}
{"variant": "T16Y", "protein stability index": 3.88}
{"variant": "L17A", "protein stability index": 3.45}
{"variant": "L17D", "protein stability index": 2.83}
{"variant": "L17E", "protein stability index": 3.59}
{"variant": "L17F", "protein stability index": 2.3}
{"variant": "L17G", "protein stability index": 3.63}
{"variant": "L17H", "protein stability index": 3.02}
{"variant": "L17I", "protein stability index": 2.52}
{"variant": "L17K", "protein stability index": 2.4}
{"variant": "L17M", "protein stability index": 2.57}
{"variant": "L17P", "protein stability index": 2.05}
{"variant": "L17Q", "protein stability index": 2.85}
{"variant": "L17R", "protein stability index": 1.98}
{"variant": "L17S", "protein stability index": 3.35}
{"variant": "L17T", "protein stability index": 4.02}
{"variant": "L17V", "protein stability index": 4.09}
{"variant": "L17W", "protein stability index": 2.85}
{"variant": "L17Y", "protein stability index": 2.18}
{"variant": "A18C", "protein stability index": 2.44}
{"variant": "A18D", "protein stability index": 2.57}
{"variant": "A18F", "protein stability index": 3.68}
{"variant": "A18G", "protein stability index": 3.28}
{"variant": "A18H", "protein stability index": 2.25}
